First the molecules themselves.
B3: ARPC2 (subunit of fission yeast Arp2/3 complex) (natural protein)
chain: MLSLDYNNIFIYELLTERFSSENPSSIDQVVTDFDGVTFHISTPEEKTKILISLSMKCYPELVNYGTLDLLKQIYGAYVHEPEMGYNFSILIDLQQLPATDEEKEQLAMSISMLKRNVLAAPFHRAFTKQAELADLARKDPENAPMLDKQATSQELMAIHYRDEETIVLWPEHDRVTVVFSTKFREETDRIFGKVFLQEFVDARRRPAIQTAPQVLFSYRDPPLEIRDIQGIQKGDDFGFVTFVLFERHFTPQNREDCISHIQVFRNTLHFHIKASKAYMHQRMRKRVADFQKVLNRAKPDVELERKTATGRSFVRA

Common to all, as to assay: cryo-EM structure
In experiment [1] the target is Arp2 (subunit of fission yeast Arp2/3 complex) (S. pombe, UniProt Q9UUJ1).
Arp2 (subunit of fission yeast Arp2/3 complex), sequence (Q9UUJ1 whole entry, one chain of several): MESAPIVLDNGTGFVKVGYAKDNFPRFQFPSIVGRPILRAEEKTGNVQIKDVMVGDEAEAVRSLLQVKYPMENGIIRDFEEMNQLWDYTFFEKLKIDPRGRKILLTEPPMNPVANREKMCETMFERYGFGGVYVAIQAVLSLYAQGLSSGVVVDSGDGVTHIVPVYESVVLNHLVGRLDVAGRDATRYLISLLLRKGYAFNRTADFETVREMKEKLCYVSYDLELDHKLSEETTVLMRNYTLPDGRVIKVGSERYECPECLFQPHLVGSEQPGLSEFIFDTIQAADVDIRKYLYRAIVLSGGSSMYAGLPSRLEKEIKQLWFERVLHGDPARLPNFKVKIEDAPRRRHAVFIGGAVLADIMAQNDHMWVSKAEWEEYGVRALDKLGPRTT
Experiment [2] concerns the target T1, ARPC1 (subunit of fission yeast Arp2/3 complex) (S. pombe, UniProt P78774).
T1 sequence: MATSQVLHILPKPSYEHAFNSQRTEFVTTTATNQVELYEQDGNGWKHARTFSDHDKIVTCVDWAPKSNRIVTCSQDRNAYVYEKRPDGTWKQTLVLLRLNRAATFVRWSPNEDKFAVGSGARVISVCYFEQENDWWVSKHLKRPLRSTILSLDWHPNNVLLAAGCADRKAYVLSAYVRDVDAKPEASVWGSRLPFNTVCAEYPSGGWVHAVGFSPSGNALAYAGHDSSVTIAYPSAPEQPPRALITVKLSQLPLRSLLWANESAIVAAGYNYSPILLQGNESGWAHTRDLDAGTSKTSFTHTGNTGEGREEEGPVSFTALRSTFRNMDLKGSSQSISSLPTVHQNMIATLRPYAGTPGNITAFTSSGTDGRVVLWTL

Experiment [3] deals with B3.

B1: ARPC3 (subunit of fission yeast Arp2/3 complex) (natural protein)
chain: MPAYHSSFLSLTDVPTTGNIAMLPLKTKFRGPAYPADESQMDIIDECIGLFRANCFFRNFEIKGPADRTLIYGTLFISECLGRVNGLNYRDAERQLNSLALENFSIPGSAGFPLNALYAPPLSPQDAEIMRTYLTQFRQELAYRLLSHVYATEKDHPSKWWTCFSKRRFMNKAL
Consider B1, for which the binding result in experiment [1] is recorded as “binds”.

B2: ARPC4 (subunit of fission yeast Arp2/3 complex) (natural protein)
chain: not shown
Take B2: the binding result in experiment [2] and in experiment [3] was “binds” in each case.
For B3, the binding result in experiment [2] and in experiment [1] was “binds” in each case.

Values taken from paper PMC9894260 (Proceedings of the National Academy of Sciences of the …, 2022).
